Assay [1] addresses human ICOS (human) (UniProt Q9Y6W8). In words: Biacore (SPR), human ICOS; format not described. A general note: SPR reads the build-up and loss of mass on a sensor chip optically.
Assay [2] deals with cynomolgus ICOS (cynomolgus). In words: Biacore (SPR), cyno ICOS; format not described.
cynomolgus ICOS (cynomolgus), sequence (A0A2K5 entry or part of it limits assumed): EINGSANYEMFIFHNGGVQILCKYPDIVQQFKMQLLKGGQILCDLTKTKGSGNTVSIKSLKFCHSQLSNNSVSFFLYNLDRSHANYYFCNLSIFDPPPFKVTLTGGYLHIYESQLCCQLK

human ICOS (human), sequence (Q9Y6W8 21-140 limits assumed): as the sequence (A0A2K5 entry or part of it limits assumed) above, with R81H counted along it

B1: murine anti-human ICOS mAb clone 314.8 (antibody, from another filing, V domains shown)
VH: QVQLQQPGTELMKPGASVKLSCKASGYTFTTYWMHWVKQRPGQGLEWIGEIDPSDSYVNYNQNFKGKATLTVDKSSSTAYIQLSSLTSEDSAVYFCARSPDYYGTSLAWFDYWGQGTLVTVST
VL: DIVMTQAAPSVPVTPGESVSISCRSSKSPLHSNGNIYLYWFLQRPGQSPQLLIYRMSNLASGVPDRFSGSGSGTTFTLKISRVEAEDVGVYYCMQHLEYPYTFGGGTKLEIK
The term Kd denotes the equilibrium constant for the complex coming apart. A low value points to tighter binding. Consider B1, for which the equilibrium dissociation constant (Kd) in assay [1] was found to be 17 nM; in assay [2] it was 9.3 nM.

(Values after patent publication US20200140551A1.)
